Read-outs that look alike come from different tables or passages of the source.
What was measured:
[1] = MAT assay of recombinant MAT II β subunit protein alone; type: biochemical
Procedure: MAT activity was assayed as previously described (22,29,31). The assay contained 5-120 μM L-methionine (L-Met), 5 mM ATP in 50 mM TES buffer, pH 7.4,50 mM KCl, 15 mM MgCl2, 0.3 mM EDTA, and 4 mM DTT. The L-Met concentration was varied as indicated in the kinetic analysis. One unit (U) of MAT activity is defined as the amount of enzyme that catalyzes the formation of 1 nmol of AdoMet in 1 hour.

E. coli MAT α protein = E. coli MAT α protein (Escherichia coli, UniProt P0A817); details: Ni-NTA agarose, native conditions
Procedure: The MAT II β expression clone, Clone 5, was inoculated into one liter of LB broth containing 25 μg/ml kanamycin and 100 μg/ml ampicillin, then incubated with shaking at 37° C. until an OD600 of 0.5-0.7 was reached. IPTG (Sigma) was added to a final concentration of 1 mM, and the culture was allowed to incubate for an additional 4 hours under the same conditions. […] The first, involved purification of the His-tagged protein under denaturing conditions of 8M urea, and the second involved separation of SDS-PAGE and elution of the β subunit protein from the gel.

MAT II = assay: MAT activity and kinetics in extracts of transfected Cos-1 cells; type: biochemical, African green monkey
Procedure: Transfection of Cos-1 cells with pTargeT™/MAT2A or pTargeT™/MAT2B was done using the cationic lipid reagent, Transfast™ (Promega). Preliminary experiments were carried out to optimize the transfection conditions. Typically, 1.5×10^6 cells were plated in 100 mm dish one day prior to transfection. For each plate, […] of vector DNA was applied in the ratio of 1:1 to Transfast™ in a protein-free medium for 2 h. For cells co-transfected with both α2 and β vectors, […] DNA from each was used. For each experiment, one untransfected plate served as a normal control, and a second plate was transfected with the pTargeT™ vector only (mock-transfected cells). After 48 h, cells were harvested by trypsinization with a solution containing 0.05% trypsin and 0.53 mM EDTA in Hank's balanced salt solution (HBSS, from Cellgro). Trypsinization was stopped by the addition of media supplemented with 10% FCS, cells were pelleted, washed three times in 1 ml HBSS, counted, then resuspended in 1× extraction buffer with protease inhibitors (50 mM Tris, pH 7.4, 100 mM NaCl, 5 mM MgCl2, 4 mM dithiothreitol, 0.1 IU/ml aprotinin, 0.5 mM PMSF and […] soybean trypsin inhibitor). Cells were lysed by three cycles of quick freezing and thawing, and the lysate was clarified by centrifugation at 15,000×g for 10 min at 4° C. If not immediately used; cell extracts were stored at −80° C. Protein assays were performed using the bicinchoninic acid reagent (Sigma) following the manufacturer instructions.
MAT activity in cell extracts was assayed as previously described (Kotb, M., and Kredich, N. M. (1985) J. Biol. Chem. 260, 3923-30). […] The concentration of L-Met was varied between […] using ^14C-L-Met (57.9 mCi/mmol) to a concentration of up to […], and supplementary with cold L-Met for higher concentrations.

Chain of E. coli MAT α protein (Q9NZL9 whole entry): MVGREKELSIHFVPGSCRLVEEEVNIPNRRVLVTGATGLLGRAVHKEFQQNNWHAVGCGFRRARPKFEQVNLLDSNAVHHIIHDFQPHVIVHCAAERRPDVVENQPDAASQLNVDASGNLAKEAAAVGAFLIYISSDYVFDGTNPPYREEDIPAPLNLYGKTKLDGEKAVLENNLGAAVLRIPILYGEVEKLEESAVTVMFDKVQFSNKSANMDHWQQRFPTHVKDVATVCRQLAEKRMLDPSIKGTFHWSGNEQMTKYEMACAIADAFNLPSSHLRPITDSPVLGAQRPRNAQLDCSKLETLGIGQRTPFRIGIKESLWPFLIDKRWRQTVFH
Chain of E. coli MAT α protein (P0A817 2-384): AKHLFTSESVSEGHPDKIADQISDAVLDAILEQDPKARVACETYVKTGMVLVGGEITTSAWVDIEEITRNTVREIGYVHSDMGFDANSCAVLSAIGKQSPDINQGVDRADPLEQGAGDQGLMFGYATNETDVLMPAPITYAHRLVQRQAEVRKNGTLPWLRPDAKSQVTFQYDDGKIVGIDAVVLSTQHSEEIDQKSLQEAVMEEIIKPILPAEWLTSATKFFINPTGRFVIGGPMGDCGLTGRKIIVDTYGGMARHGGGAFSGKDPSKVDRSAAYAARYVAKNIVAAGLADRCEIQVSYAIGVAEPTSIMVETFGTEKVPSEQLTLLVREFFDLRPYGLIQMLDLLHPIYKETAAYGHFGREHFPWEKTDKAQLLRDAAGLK

B1: MAT II β subunit: recombinant regulatory β subunit of human methionine adenosyltransferase II, 334 amino acids, expressed in E. coli or Cos-1 cells (protein, UniProt Q9NZL9 2-334, looked up)
Methionine …: VGREKELSIHFVPGSCRLVEEEVNIPNRRVLVTGATGLLGRAVHKEFQQNNWHAVGCGFRRARPKFEQVNLLDSNAVHHIIHDFQPHVIVHCAAERRPDVVENQPDAASQLNVDASGNLAKEAAAVGAFLIYISSDYVFDGTNPPYREEDIPAPLNLYGKTKLDGEKAVLENNLGAAVLRIPILYGEVEKLEESAVTVMFDKVQFSNKSANMDHWQQRFPTHVKDVATVCRQLAEKRMLDPSIKGTFHWSGNEQMTKYEMACAIADAFNLPSSHLRPITDSPVLGAQRPRNAQLDCSKLETLGIGQRTPFRIGIKESLWPFLIDKRWRQTVFH
- MAT catalytic activity [1]: no MAT catalytic activity
- association / co-purification with E. coli MAT α (E. coli MAT α protein; listed as recombinant MAT II β subunit protein): associated spontaneously
- association / co-purification with E. coli MAT α (E. coli MAT α protein; listed as recombinant human MAT II β subunit protein): co-purifying
- effect on the Km for L-Met of the endogenous MAT II (MAT II; expression in Cos-1 cells): no effect
- effect on MAT (specific) activity (MAT II; expression in Cos-1 cells, result in words): increase
- Km (MAT II; extracts of Cos-1 cells transfected with β or co-transfected with α2 and β, single kinetic form, read-out: Km for L-Met): 20 µM
- increase in MAT activity (MAT II; transfected Cos-1 cell extracts compared to untransfected (or mock-transfected) cells): ~2 fold
